# Test results as given in the Immune Epitope Database (IEDB).
# Tests used:
# HLA-A*26:01 = test: IEDB peptide-MHC binding, purified MHC/competitive/fluorescence; filed as Kd, often an IC50 or EC50 that approximates it; ≥ and ≤ were set here for values at or beyond the usual limits of such assays
# HLA-A*69:01 [1] = test: as above
# HLA-B*51:01 = test: as above
# HLA-A*02:01 [2] = test: as above
# HLA-B*18:01 [3] = test: as above
# HLA-B*57:01 [4] = test: as above
# HLA-B*46:01 [5] = test: as above
# HLA-B*39:01 = test: as above
# HLA-B*15:17 = test: as above
# HLA-A*29:02 = test: IEDB peptide-MHC binding, purified MHC/direct/fluorescence; filed as Kd, often an IC50 or EC50 that approximates it; ≥ and ≤ were set here for values at or beyond the usual limits of such assays
# HLA-A*68:02 [6] = test: as above
# HLA-A*02:11 = test: as above
# HLA-A*02:12 [7] = test: as above
# HLA-A*23:01 = test: as above
# HLA-A*02:16 = test: as above
# HLA-A*02:03 [8] = test: as above
# HLA-A*24:03 [9] = test: as above
# HLA-A*11:01 = test: as above
# HLA-A*03:01 = test: as above
# HLA-A*02:19 [10] = test: as above
# HLA-B*27:03 = test: IEDB peptide-MHC binding, purified MHC/competitive/fluorescence; filed as Kd, often an IC50 or EC50 that approximates it; ≥ and ≤ were set here for values at or beyond the usual limits of such assays
# HLA-B*40:01 = test: IEDB peptide-MHC binding, purified MHC/direct/fluorescence; filed as Kd, often an IC50 or EC50 that approximates it; ≥ and ≤ were set here for values at or beyond the usual limits of such assays; conditions: source organism: Orthohantavirus andesense
# HLA-B*58:01 = test: as above; conditions: source organism: Orthohantavirus andesense
# HLA-A*31:01 = test: as above; conditions: source organism: Orthohantavirus andesense
# HLA-A*69:01 [11] = test: as above; conditions: source organism: Orthohantavirus andesense
# HLA-B*27:05 = test: as above; conditions: source organism: Orthohantavirus andesense
# HLA-A*02:01 [12] = test: as above; conditions: source organism: Orthohantavirus andesense
# HLA-B*18:01 [13] = test: as above; conditions: source organism: Orthohantavirus andesense
# HLA-B*57:01 [14] = test: as above; conditions: source organism: Orthohantavirus andesense
# HLA-B*44:02 = test: as above; conditions: source organism: Orthohantavirus andesense
# HLA-B*46:01 [15] = test: as above; conditions: source organism: Orthohantavirus andesense
# HLA-A*01:01 = test: as above; conditions: source organism: Orthohantavirus andesense
# HLA-B*48:01 = test: as above; conditions: source organism: Orthohantavirus andesense
# HLA-B*08:01 = test: as above; conditions: source organism: Hantavirus Monongahela-3
# HLA-B*07:02 = test: as above; conditions: source organism: Orthohantavirus andesense
# HLA-B*15:01 [16] = test: as above; conditions: source organism: Orthohantavirus andesense
# HLA-A*68:02 [17] = test: IEDB peptide-MHC binding, purified MHC/competitive/fluorescence; filed as Kd, often an IC50 or EC50 that approximates it; ≥ and ≤ were set here for values at or beyond the usual limits of such assays; conditions: source organism: Vibrio vulnificus YJ016
# HLA-A*02:12 [18] = test: as above; conditions: source organism: Vibrio vulnificus YJ016
# HLA-A*02:03 [19] = test: as above; conditions: source organism: Vibrio vulnificus YJ016
# HLA-A*24:03 [20] = test: as above; conditions: source organism: Vibrio vulnificus YJ016
# HLA-B*15:01 [21] = test: as above; conditions: source organism: Vibrio vulnificus YJ016
# HLA-A*02:19 [22] = test: as above; conditions: source organism: Vibrio vulnificus YJ016
# [23] = source organism: Rickettsia bellii RML369-C
# [24] = source organism: Rickettsia bellii OSU 85-389
# [25] = source organism: Giardia lamblia ATCC 50803
# [26] = source organism: Four Corners hantavirus
# [27] = source organism: Orthohantavirus andesense
# [28] = source organism: Limestone Canyon virus
# [29] = source organism: Vibrio vulnificus YJ016
sequence,measurement,setting,value
AKIALAVYK,Kd,HLA-A*26:01; [23],≥ 20 µM
same,Kd,HLA-A*69:01 [1]; [23],≥ 20 µM
same,Kd,HLA-B*51:01; [23],≥ 20 µM
same,Kd,HLA-A*02:01 [2]; [23],≥ 20 µM
same,Kd,HLA-B*18:01 [3]; [23],≥ 20 µM
same,Kd,HLA-B*57:01 [4]; [23],≥ 20 µM
same,Kd,HLA-B*46:01 [5]; [23],≥ 20 µM
same,Kd,HLA-B*39:01; [23],≥ 20 µM
same,Kd,HLA-B*15:17; [23],≥ 20 µM
same,Kd,HLA-A*29:02; [24],≥ 20 µM
same,Kd,HLA-A*68:02 [6]; [24],≥ 20 µM
same,Kd,HLA-A*02:11; [24],≥ 20 µM
same,Kd,HLA-A*02:12 [7]; [24],≥ 20 µM
same,Kd,HLA-A*23:01; [24],≥ 20 µM
same,Kd,HLA-A*02:16; [24],≥ 20 µM
same,Kd,HLA-A*02:03 [8]; [24],≥ 20 µM
same,Kd,HLA-A*24:03 [9]; [24],≥ 20 µM
same,Kd,HLA-A*11:01; [24],0.427 µM
same,Kd,HLA-A*03:01; [24],≥ 20 µM
same,Kd,HLA-A*02:19 [10]; [24],≥ 20 µM
APDGFYPFK,Kd,HLA-A*26:01; [25],≥ 20 µM
same,Kd,HLA-A*69:01 [1]; [25],≥ 20 µM
same,Kd,HLA-B*51:01; [25],≥ 20 µM
same,Kd,HLA-A*02:01 [2]; [25],≥ 20 µM
same,Kd,HLA-B*18:01 [3]; [25],≥ 20 µM
same,Kd,HLA-B*57:01 [4]; [25],≥ 20 µM
same,Kd,HLA-B*46:01 [5]; [25],≥ 20 µM
same,Kd,HLA-B*27:03; [25],≥ 20 µM
same,Kd,HLA-B*39:01; [25],≥ 20 µM
same,Kd,HLA-B*15:17; [25],≥ 20 µM
same,Kd,HLA-A*29:02; [25],≥ 20 µM
same,Kd,HLA-A*68:02 [6]; [25],≥ 20 µM
same,Kd,HLA-A*02:11; [25],≥ 20 µM
same,Kd,HLA-A*02:12 [7]; [25],≥ 20 µM
same,Kd,HLA-A*23:01; [25],≥ 20 µM
same,Kd,HLA-A*02:16; [25],≥ 20 µM
same,Kd,HLA-A*02:03 [8]; [25],≥ 20 µM
same,Kd,HLA-A*24:03 [9]; [25],≥ 20 µM
same,Kd,HLA-A*11:01; [25],0.248 µM
same,Kd,HLA-A*03:01; [25],≥ 20 µM
same,Kd,HLA-A*02:19 [10]; [25],≥ 20 µM
EKLKKKSAF,Kd,HLA-A*26:01; [26],≥ 20 µM
same,Kd,HLA-B*27:03; [26],≥ 20 µM
same,Kd,HLA-B*39:01; [26],≥ 20 µM
same,Kd,HLA-B*15:17; [26],≥ 20 µM
same,Kd,HLA-B*40:01,≥ 20 µM
same,Kd,HLA-B*58:01,≥ 20 µM
same,Kd,HLA-A*29:02; [27],≥ 20 µM
same,Kd,HLA-A*68:02 [6]; [28],≥ 20 µM
same,Kd,HLA-A*31:01,≥ 20 µM
same,Kd,HLA-A*69:01 [11],≥ 20 µM
same,Kd,HLA-B*27:05,≥ 20 µM
same,Kd,HLA-A*02:01 [12],≥ 20 µM
same,Kd,HLA-A*02:12 [7]; [28],≥ 20 µM
same,Kd,HLA-A*23:01; [28],≥ 20 µM
same,Kd,HLA-B*18:01 [13],≥ 20 µM
same,Kd,HLA-A*24:03 [9]; [28],≥ 20 µM
same,Kd,HLA-B*57:01 [14],≥ 20 µM
same,Kd,HLA-A*11:01; [27],≥ 20 µM
same,Kd,HLA-A*03:01; [27],≥ 20 µM
same,Kd,HLA-B*44:02,≥ 20 µM
same,Kd,HLA-B*46:01 [15],≥ 20 µM
same,Kd,HLA-A*01:01,≥ 20 µM
same,Kd,HLA-B*48:01,≥ 20 µM
same,Kd,HLA-B*08:01,≥ 5 µM
same,Kd,HLA-B*07:02,≥ 20 µM
same,Kd,HLA-B*15:01 [16],≥ 20 µM
same,Kd,HLA-A*02:19 [10]; [28],≥ 20 µM
GMWCVLASR,Kd,HLA-A*68:02 [17],≥ 20 µM
same,Kd,HLA-A*26:01; [29],≥ 20 µM
same,Kd,HLA-A*69:01 [1]; [29],≥ 20 µM
same,Kd,HLA-B*51:01; [29],≥ 20 µM
same,Kd,HLA-A*02:01 [2]; [29],≥ 20 µM
same,Kd,HLA-A*02:12 [18],0.93 µM
same,Kd,HLA-B*18:01 [3]; [29],≥ 20 µM
same,Kd,HLA-A*02:03 [19],≥ 20 µM
same,Kd,HLA-A*24:03 [20],≥ 20 µM
same,Kd,HLA-B*57:01 [4]; [29],≥ 20 µM
same,Kd,HLA-B*46:01 [5]; [29],≥ 20 µM
same,Kd,HLA-B*27:03; [29],≥ 20 µM
same,Kd,HLA-B*39:01; [29],≥ 20 µM
same,Kd,HLA-B*15:17; [29],≥ 20 µM
same,Kd,HLA-B*15:01 [21],≥ 20 µM
same,Kd,HLA-A*02:19 [22],≥ 20 µM
